Experimental data: patent US20190276873A1

Columns and labels:
Assay in all cases: cell-based or functional assay
[1] = molecular target: Sensor 3: NNano-hVAMP1-CNano (human)
[2] = molecular target: Sensor 2: NNano-p25-CNano (human)
[3] = molecular target: In vivo assay construct: Nnano(1-159)-Firefly(Full length)-GGGGS-p25(FullLength)-Cnano(160-170) (Photinus pyralis; human)
[4] = molecular target: Sensor 1: NNano-SV2C-p25-CNano (human)

In vivo assay construct: Nnano(1-159)-Firefly(Full length)-GGGGS-p25(FullLength)-Cnano(160-170) (Photinus pyralis; human), sequence (P08659 other isoform, or with tags, fused parts or gaps): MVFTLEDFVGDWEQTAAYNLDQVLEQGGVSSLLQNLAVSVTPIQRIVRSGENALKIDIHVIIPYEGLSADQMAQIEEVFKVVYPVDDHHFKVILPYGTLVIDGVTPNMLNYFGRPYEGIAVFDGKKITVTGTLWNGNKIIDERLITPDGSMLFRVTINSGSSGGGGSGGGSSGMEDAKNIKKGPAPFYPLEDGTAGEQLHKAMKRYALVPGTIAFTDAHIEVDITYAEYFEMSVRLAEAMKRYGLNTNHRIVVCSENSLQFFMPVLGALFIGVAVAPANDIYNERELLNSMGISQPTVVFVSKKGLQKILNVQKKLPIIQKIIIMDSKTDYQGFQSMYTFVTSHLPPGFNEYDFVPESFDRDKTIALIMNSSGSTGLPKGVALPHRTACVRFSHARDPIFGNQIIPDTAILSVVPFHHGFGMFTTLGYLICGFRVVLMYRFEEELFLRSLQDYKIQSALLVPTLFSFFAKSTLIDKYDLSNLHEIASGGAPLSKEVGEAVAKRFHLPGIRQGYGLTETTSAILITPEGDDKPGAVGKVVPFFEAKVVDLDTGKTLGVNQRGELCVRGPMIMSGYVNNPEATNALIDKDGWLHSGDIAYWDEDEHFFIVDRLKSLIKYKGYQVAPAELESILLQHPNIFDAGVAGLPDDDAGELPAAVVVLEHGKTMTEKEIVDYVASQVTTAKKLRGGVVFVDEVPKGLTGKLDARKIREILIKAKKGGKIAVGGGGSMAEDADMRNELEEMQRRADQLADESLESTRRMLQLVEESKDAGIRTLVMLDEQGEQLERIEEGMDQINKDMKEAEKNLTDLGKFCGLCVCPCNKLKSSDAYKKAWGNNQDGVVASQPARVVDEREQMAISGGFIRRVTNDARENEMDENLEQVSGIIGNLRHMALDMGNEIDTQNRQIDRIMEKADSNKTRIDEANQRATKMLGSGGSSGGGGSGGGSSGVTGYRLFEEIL

Botulinum neurotoxin B (BoNT/B) (from UniProt P10844 2-1291) (enzyme)
EC50 (percentage of luminescence of NANOLUC luciferase, after 4 h at 37 C) [1]: 75.7 pM | EC50 (percentage of luminescence of NANOLUC luciferase, after 24 h at 37 C) [1]: 3.9 pM

Botulinum neurotoxin A (BoNT/A) (from UniProt P0DPI0 2-1296) (enzyme)
EC50 (percentage of luminescence of NANOLUC luciferase, after 4 h at 37 C) [2]: 48.3 pM | EC50 (percentage of luminescence of NANOLUC luciferase, after 24 h at 37 C) [2]: 35.9 pM | EC50 (ratio NANOLUC/Firefly in lysates of neurons, 48 h after toxin) [3]: 2.9 pM | EC50 (percentage of luminescence of NANOLUC luciferase, after 4 h at 37 C) [4]: 9.73 pM | EC50 (percentage of luminescence of NANOLUC luciferase, after 24 h at 37 C) [4]: 7.86 pM | fold sensitivity (EC50) against the sensor without SV2C [4]: 5 fold
